Experimental data reported in PMC7241785.

Biological target: T1, GST-Flag-SASPase 28 kDa recombinant protein (human) (UniProt Q53RT3)
T1 sequence: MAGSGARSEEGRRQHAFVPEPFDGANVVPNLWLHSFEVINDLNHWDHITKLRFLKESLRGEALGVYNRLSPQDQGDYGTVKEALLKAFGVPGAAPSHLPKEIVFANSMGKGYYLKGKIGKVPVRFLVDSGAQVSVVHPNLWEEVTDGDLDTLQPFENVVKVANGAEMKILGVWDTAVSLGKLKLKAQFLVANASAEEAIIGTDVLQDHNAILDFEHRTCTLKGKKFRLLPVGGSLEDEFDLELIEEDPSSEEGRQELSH

SASPase activity on Dabcyl-QIDRIMEK-Glu(Edans)-NH2 (0.1 mM), pH 5.5, 0.5 μM SASPase 28, FLG2Nter at ratios from 1.25 to 10; fold against the protease alone: 10 fold
B1: recombinant protein FLG2Nter (aa 2-213) (domain or fragment)
chain: TDLLRSVVTVIDVFYKYTKQDGECGTLSKGELKELLEKELHPVLKNPDDPDTVDVIMHMLDRDHDRRLDFTEFLLMIFKLTMACNKVLSKEYCKASGSKKHRRGHRHQEEESETEEDEEDTPGHKSGYRHSSWSEGEEHGYSSGHSRGTVKCRHGSNSRRLGRQGNLSSSGNQEGSQKRYHRSSCGHSWSGGKDRHGSSSVELRERINKSHI
